Experimental data from the nanobody polyreactivity screen of Harvey et al. (2022).

Test: yeast display, Sf9 membrane polyspecificity reagent, FACS + sequencing; frameworks hold sequencing errors
Procedure, shortened: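 Polyreactivity labels are assigned by the sorting gate from which each nanobody was recovered. The gates were low and high (top ~1%), set on anti-HA fluorescence for expression and streptavidin fluorescence for reagent binding. Before sorting, galactose-induced (36–48 hours) yeast display cells were stained for 1 hour at 4 °C with 10% biotinylated, detergent-solubilized Sf9 membrane reagent.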

| Sequence | polyreactivity (PSR sort gate) |
| --- | --- |
| QVQLVESGGGLVQAGGSLRLSCAASAYTFYAMGWYRQAPGKERELVAAITYRGARTYYADSVKRRFTISRDNEKNTVYLQMNSLKPEYTAVYYCNADYWGQGTQVTVSS | low polyreactivity |
| QVQLVESGGGLVQAGGSLRLSCAASCRIFSYYVMGWYRQAPGKERELVAAISYRGGGTYYADSVKGRFTISRDNAKNNFYLQMNSLKPEDTAVYYCNADTYSNTYRAYDYWGQGTQVTVSS | low polyreactivity |
| QVQLVESGGGLVQAGGSLRLSCAASFYVYAMGWYRQAPGKERELVAAITYSGGGTYYADSVKGRFTISRDNAKNTVYLQMNSLKPEDTAVYYCAADDYFYDYDYWGQGTQVTVSS | low polyreactivity |
| QVQLVESGGGLVQAGGSLRLSCAASGAIFPSYVMGWYRPAPGKERELVAAITKSTGTTYYADSVKGRFTISRDNAKNTVYLQMNSLKPEDTAVYYCAASGSWSTNTAIYKFYYWGQGTQVTVSS | low polyreactivity |
| QVQLVESGGGLVQAGGSLRLSCAASGAIFSWNAMGWYRQAPGKERELVATITWNGGRTYYADSVKGRFTISRDNAKKTVYLQMNSLKPEATAVYYCAARNTQPASYGYGYWGQGTQVTVSS | high polyreactivity |
| QVQLVESGGGLVQAGGSLRLSCAASGAILYGNAMGWYRQAPGKERELVAAISYSGGRTYYADSVKGRFTISRDNAKYTVYLQMNSLKPEDTAVYYCASLHSGRVQNFDYWGQGTQVTVSS | high polyreactivity |
| QVQLVESGGGLVQAGGSLRLSCAASGATFPVYAMGWYRQAPGKEWELVAAISRSGASTYYADSVKGRFTISRDNAKNTVYLQMNSLKPEDTAVYYCARGYQGRLKYEYWGQGTQVNVSS | low polyreactivity |
| QVQLVESGGGLVQAGGSLRLSCAASGATFWYNAMRWYREAPGKERELVAAITWTGDGTYYADSVKGRFTISRDNAKNTVYLQMNSLKPEDTAVYYCAAAYFQWSTSIVGLDAWYDYWGQGSQVTVSS | low polyreactivity |
| QVQLVESGGGLVQAGGSLRLSCAASGCIFWKDAMGWYRQAPGKERELVAAITSGGGTYYADSVKGLFTISRDNAKNTVYLQMNSLKPEDTAVYYCAARSLSVARRRPYYYWGQGTQVTVSS | high polyreactivity |
| QVQLVESGGGLVQAGGSLRLSCAASGFDGYAMGWYRQAPGKERELVAASSWSGSRTYYADSVKGRFTISRDNAKNTVYLQMNSLKPEDTAVYYCNAVLRYSIYPSYSFSYVGYYYWGHGTQVTVSS | high polyreactivity |
| QVQLVESGGGLVQAGGSLRLSCAASGFICGLNAMGLYRQAPGKERELVAAIRSASSTNYADSVKGRFTISRDNAKNTVYLQMNSLKPEDTAVYYCAAEYVTYQQGFWGYDYWGQGTQVTVSS | low polyreactivity |
| QVQLVESGGGLVQAGGSLRLSCAASGFIFADNAMGWYRQAPGKERELVAGITSGGITNYADSVKGRFTISRDNAKNTVYLQMNSLKQVDTAVYYCAVYYRRWFSRYDYWGQGTQVTVSS | low polyreactivity |
| QVQLVESGGGLVQAGGSLRLSCAASGFIFADNPMGWYRQAPGKERELVAGITSGGITNYADSVKGRFTISRDNAKNTVYLQMNSLKPEDTAVYYCAVYYRRWFSRYDYWGQGTQVTVSS | low polyreactivity |
| QVQLVESGGGLVQAGGSLRLSCAASGFIFADYAMGWYRPAPGKERELVAAISSGGRTKYADSVKGRFTISRDNAKNTVYLQMNSLIPDDTAVYYCAKALRRVPRIQAYPVPQGDYWGHGTQVTVSS | high polyreactivity |
| QVQLVESGGGLVQAGGSLRLSCAASGFIFADYAMGWYRQAPGKARELVAAINRGASTYYADSVKGRFSISRDNAKNTVYFQMNSLKPEDTAVYYCAAAGYSRGGRGGYWGHGTQVTVSS | high polyreactivity |
| QVQLVESGGGLVQAGGSLRLSCAASGFIFADYTMGWSRQAPGQERELVAVITSGGSTHYADSVKGRFTISRDNAKNTVYLQMNSLKPEDTAVYYCAARSYRPTRGDYWGQGTKVTVSS | high polyreactivity |
| QVQLVESGGGLVQAGGSLRLSCAASGFIFAEYAMGWYRQAPGKEREFVASITYSGGRTYYADSVKGRFTISRDNAKNTVYLQMNSLKPEDTAVYYCATARYRYHYYSWGQGTQVTVSS | high polyreactivity |
| QVQLVESGGGLVQAGGSLRLSCAASGFIFAFNAMGWYRQAPGKEREFVASITGSSDSTYYADSVKGRFTISRDNAKNTVYLQMNSLKPEDTAVYYCAADPASSYGKYSYYYWGQGTQVTVSS | high polyreactivity |
| QVQLVESGGGLVQAGGSLRLSCAASGFIFAGYAMGWYRQAPGKERELVAAINRNGRSTYYADSVKGRFTISRDNAKNTVYLQMNSLKPEDTAVYYCNARSFARIGAGKGDYWGQGTQVTVSS | high polyreactivity |
| QVQLVESGGGLVQAGGSLRLSCAASGFIFAKYAMGWYRQAPGKERELVAAITSGGSTNYADSVKGRFTISRDNAKNTVYLQMNSLKPEYTAVYYCNRGFDWWYRYRHYDYWGQGTQVTVSS | low polyreactivity |
| QVQLVESGGGLVQAGGSLRLSCAASGFIFALYTMGWYRQAPGKERELVARIRGGGRTNYADSVKGRFTISRDNAKNTVYLQMNSLKPEDTAVYYCNARKTVGMDYWGQGTQVTVSS | low polyreactivity |
| QVQLVESGGGLVQAGGSLRLSCAASGFIFAQNAMGWYRQAPGKEREFVAAISSRGSRTYYADSVKGRFTISRDNAKNTVYLQMNSLKPEDTAVYYCAASRRTRSMNYWGQGTQVTVSS | high polyreactivity |
